Test results published in publication PMC6321479, “The C Terminus of the Ribosomal-Associated Protein LrtA Is an Intrinsically Disordered Oligomer” (International Journal of Molecular Sciences, 2018).

Experiments:
[1] = target: the molecule itself; experiment: SEC; Superose 12 10/300 GL, pH 8.0 (50 mM Tris), 0.250 M NaCl, 0.8 mL/min; C-LrtA loaded at 30 uM (protomer), 100 uL
[2] = target: the molecule itself; experiment: SEC; Superose 12 10/300 GL, pH 8.0 (50 mM Tris), 0.250 M NaCl, 0.8 mL/min; C-LrtA loaded at 500 uM (protomer), 100 uL
[3] = target: the molecule itself; experiment: cross-linking; glutaraldehyde, pH 7.2 (50 mM Tris), 120 uM C-LrtA (protomer), 200 uL, several reaction times, SDS-PAGE
[4] = target: the molecule itself; experiment: native gel or EMSA; blue-native PAGE, linear 4-16% gradient gel, 20 ug C-LrtA with Coomassie Brilliant blue G, 4 °C; increasing amounts of SDS also tested

B1: C-terminal region of LrtA (C-LrtA, residues 102-191) with N-terminal His-tag (domain or fragment, Synechocystis sp. PCC 6803)
chain: QHGNVKTSEIVEDKPVEENLIGDRAPELPSEVLRMKYFAMPPMAIEDALEQLQLVDHDFYMFRNKDTDEINVIYIRNHGGYGVIQPHQAS
notes: LrtA of Synechocystis sp; PCC 6803 (191 residues), residues 102-191; whole construct 109 residues with the His-tag, 12,449.89 Da; Cloned in pHTP1 by NZytech; also called isolated C-LrtA; C-terminal half of LrtA protein; source: E. coli BL21 (DE3), purified (Ni-resin IMAC, Hi-Trap Mono Q)
[1]
  stoichiometry N: ~2
[2]
  stoichiometry N: ~8
[3]
  stoichiometry N: 2
[4]
  stoichiometry N: 5
